Assay: soluble on expression in E. coli; label from the status in PepcDB or PDB records

Sequence	soluble on expression in E. coli
MQSASDGFSKMIKTLLYITPDPCPECGGNLYAWRAKNKDGSDRCPPTCMECGYKARKKAEDLETEKMFNDSLKARAINYLKYSSLYTDKNLINCRFKTYKTVDTETKLAFEIANRATTEILLNKPIHMILSGKSGVGKSHLAMSTAWEVLEKSNYDKRCLFISYAELLEQLKFAMNDEQARKEITGSLMAEIKSADLVVLDDLGAELGVKQIDDRNKSTNFNNDTLNRIVEARQNKATIFTTNLTGKEMSQAYGERILSRIMSNSQGFVMKIEGTSDKRVAGILEHHHHHH	soluble
MGHHHHHHSHMAMRQTPLTCSGHTRPVVDLAFSGITPYGYFLISACKDGKPMLRQGDTGDWIGTFLGHKGAVWGATLNKDATKAATAAADFTAKVWDAVSGDELMTLAHKHIVKTVDFTQDSNYLLTGGQDKLLRIYDLNKPEAEPKEISGHTSGIKKALWCSEDKQILSADDKTVRLWDHATMTEVKSLNFNMSVSSMEYIPEGEILVITYGRSIAFHSAVSLDPIKSFEAPATINSASLHPEKEFLVAGGEDFKLYKYDYNSGEELESYKGHFGPIHCVRFSPDGELYASGSEDGTLRLWQTVVGKTYGLWKCVLPEEDSGELAKPK	not soluble
MSLKIIILGAGQVGGTLAENLVGENNDITVVDKNADRLRDLQDKYDLRVVNGHASHPDVLREAGAQDADMLVAVTNTDETNMAACQVAFTLFNTPNRIARIRSPQYLAEKEALFQSGAVPVDHLIAPEELVTSYIERLIQYPGALQVVSFAEEKVSLVAVKAYYGGPLVGNALSALRDHMPHIDTRVAAIFRQGRPIRPQGTTIIEADDEVFFVAASNHIRSVMSELQRLEKPYRRIMIVGGGNIGASLAKRLEQTYSVKLIEHNYQRAEQLSEQLENTIVFCGDAADQELLSEENIDQVDVFIALTNEDETNIMSAMLAKRMGAKKAMVLIQRSGYVDLVQGGVIDVAISPQQATISALLTHVRRADIVNVSSLRRGAAEAIEAIAHGDESTSKVVGRAVGDIKLPPGTTIGAIVRGEEVLIAHDRTVIEQDDHVVMFLVDKKYVPDVETLFQPSPFFLEGHHHHHH	soluble
KSVYLQSPYFIPDNSYINAIKIAAKSGVDVHLMIPCKPDHPLVYWATFSNASDLLSSGVKIYTYENGFIHSKMCLIDDEIVSVGTANMDFRSFELNFEVNAFVYDENLAKDLRVAYEHDITKSKQLTKESYANR	not soluble
MGSDKIHHHHHHMNSSQKRVLHVLSGMNRGGAETMVMNLYRKMDKSKVQFDFLTYRNDPCAYDEEILSLGGRLFYVPSIGQSNPLTFVRNVRNAIKENGPFSAVHAHTDFQTGFIALAARLAGVPVRVCHSHNTSWKTGFNWKDRLQLLVFRRLILANATALCACGEDAGRFLFGQSNMERERVHLLPNGIDLELFAPNGQAADEEKAARGIAADRLIIGHVARFHEVKNHAFLLKLAAHLKERGIRFQLVLAGDGPLCGEIEEEARQQNLLSDVLFLGTEERIHELMRTFDVFVMPSLYEGLPVVLVEAQASGLPCIISDSITEKVDAGLGLVTRLSLSEPISVWAETIARAAAAGRPKREFIKETLAQLGYDAQQNVGALLNVYNISTEKDHNR	not soluble
MASVALALWERVLANVVPRQSIAVIGAGVSGLSAAWLLSHRHDVTLYEADNRLGGHANTIIAEGVAVDTGFIVYNEPNYPNLTALFRHIGVETTETDMSFGVSLDGGALEYSSTKLLAQKRNVANPRFIKMLLDVVRFYREGRNIPADLEQGGLCRLDDYLRRQGFGRAFQEDHLLPQAAAIWSASMRDIREFPAAALLRFFDNHGLMLPIDKRPIWRTVVGGSARYVEKLAAGVSGPILTGRPVKAIHRGPDGVRIEDATGETRAFDHVVIGAHADQALSMLAAPSAEERELLGAFRYSRNRAVLHSDPALMPRRRGAWASWNHVGRRGEDGEGGVTYWMNILQPLGVERPYFLSLNPMQDPAGLMHDQVYEHPLFDGPAMLAQRRLWSLQGRRRTWFCGAYFGSGFHEDGLQAGLAVAEQLGGVRRPWLVPNPSGRIVLDVADQAADRELVALEHHHHHH	not soluble
MNINEPSVSIIMATYNSEKFLRETLDSICCQTYGNWELIITDDSSTDNTSDILRDYSERYNNIFYSINEVNQGAAISRNKCISQAKGMYIAFIDSDDLWAHNKLEKHIHFIAEHNSAISFTSYELMNENGIPLGKYVDANIPPVLTYNDMLRKKATIGCSTVILSSKLVGEFKMPLLRTGQDYATWLLLLKKVEVAHHFPKVLTKYRVCKNSISRNKFKKAKRQWQIYREVEKLPFYESIVCFCFYAWRAVFRK	not soluble
MGTIADIVVTEQNAERFWIVVHRDGAPSLRLTVDQDVLLQFRLKKGMEISDDLLQHIVYADEVKKAYQQALYFLAHRMRSEHEVAAHLRKKGAPDSVIDEVLKKLRAERYVDDEAFAAAYVRTQKKTAAKGPLLIRAELERLGVLGCLIEQSLAEYTLDEQMAIARSLYEKAKKQRLAESARAFLERVRQQLMRKGFPHEVIAAVLADGGAHTEQEEREALSVQAEKAHRRYAHHPRPLYEQKMRQALYRKGFALDLINEWLRMHGNDE	not soluble
WKQKVGYPTNQTWGYIAEGLFVDDNEVANSPVQFGEYGAGDIKYRDVNKDGKITDLDQVPIGYPKEPEIVYGFGASYGYKNWDISVFFQGLARESFWIDYNNVSPYFNTVDTKVVGNRVGHNALAKFIADSHWSEDNRDAYAVWPRLSPTSIENNSKTSTWFMRDGSFLRLKQLEIGYTIPEKVTNKVGIKNLRFYVTGNNLLCFSKFKLWDPEMAGAGLGYPVQRVYNVGLNLTF	not soluble
MAGNANSVDEEVTRILGGIYLGGIRPIIDHRPLGAEFNITHILSVIKFQVIPEYLIRKGYTLKNIPIDDDDVTDVLQYFDETNRFIDQCLFPNEVEYSPRLVDFKKKPQRGAVFAHCQAGLSRSVTFIVAYLMYRYGLSLSMAMHAVKRKKPSVEPNENFMEQLHLFEKMGGDFVDFDNPAYKQWKLKQSIKLDPSGSELVSNSGMFKDSESSQDLDKLTEAEKSKVTAVRCKKCRTKLALSTSFIAHDPPSKESSEGHFIKRAANSHRIIDIQESQANCSHFFIEPLKWMQPELQGKQELEGKFSCPGCSSKVGGYNWKGSRCSCGKWVIPAIHLQTSKVDQFPLQSTALPNMVNFESEKVNR	not soluble
MAHHHHHHMDLFNCQYCSISPFDYILDYLYGDTSSKKEEKKKKSNITYDDSSSNNVSQVVSKIDEEIEKRTTNEILLLCRAWENYVHPRAKEYWKDSQQLQNILCKIANGITKNDDPILGDDYACVFWYGDKNKNDNCPIISVKKGNDNIETITYVNRVLIFLYADEASFQELQKKPKKAFTMACGNTNCINLTHISLDD	not soluble
MGSDKIHHHHHHMDIDLARTFLEIARSGSFVAAAERLHLTQTAVTARIQNLEGQLGCRLFVRNRAGARLTADGEHFLGYASQLVQTWDAARRDLPLPDGFRNLLNLGGEVSLCNPLLLNWMRRLREAIPGHAVRVEIGQGADLLKQLEQGALDAALVYQPEYWPGLQVEQLLEEKLVMVRSVLSAEPYLYVDWGPDFRSQHDAALPDRAKAALACNLGPLALQYIMQNGGSGYFRTRVVSSYLDGGTLQRVEQAPEFAYPTYLVYSRERLSPTLRHAFQLLREVVREDSDWSQRWDYVI	not soluble
MAISVFDMFKIGIGPSSSHTVGPMRAGALFVTELRNQNRLHSVERIEVRLYGSLSATGIGHGSDRATVMGLMGEWPDQIDPSQVNQRIDALRADNQLMLAGEQAITFVWERDMCLLDESLPYHPNGMTLCAYGKTGEVHEQTYYSVGGGFVIDAEQAASGV	not soluble
MSLKYLIDLHTHTIVSGHAYTTLLENIKQASQIGIKILGTSEHGPKMPGAPHIWYFGNMNKVPRKIYDVTVLRGCEADILNSNGDLDIPERIQNELDYIIASLHDVCIEPGTIEDNTKALLNAMNNPNIDILGHTGNPMYPIDIDAVVSKAKEKNVLIEINNGSLSGSREGSYDNCKKIAQACKKKGVKVILGTDSHISFTIGNFDKVQKLLDSVDMPKELIMNTDEKKIVEYLKAKGKLKNEGHHHHHH	soluble
MAHHHHHHMTQQRGKKAAPSKAAVANASASAPDPPPFFSMGPATFTDAIVITKVISVVLPLRHLRDRNILHTTLLKKLLHRPYEASAEDLAQQQLSQQETDDGGKHDCGAHSALDNLAAPTSSSSSTPYVIVHIKSAEIHADTARQVNPRGDVQVNVMVTLVAARLQHGICAGVSEASPFTSCMQVRVPTVAVSAAVAARGSTDDAATLLLGDALEAGADNVSQEGVKDEKAEPSGGDTALDASVSATTTAAAAKRSCCTGIPADQQLRVTARCLEDEPIVPGQAVLLISEPAAMRCMGIRPPRAAPGSFYLTETTQPSAQFSSGEAEGGPEARPKKRARKSRASAGGTGGATPARRIVSIECAIPKREEDGEGGAAAGPRKGPRKRPHT	not soluble
MAHHHHHHMLNALGITSPRHDALIAKFLKAMAVEGGASEATKRDEAVDAARFVYVFSTVWRAAVTHRTPRSPVSTRVSAPPRSPPAAQQHGNSPDGATMRHAYSREVSCRGAPPSHMKAAPATEVGSSGGSGSAVSARSSSSPSAVWSSSEGGEGAAHSHTESASPLTSCGGGDERRSDAAESDADFLRTNISDASSSIPDSSEKPQAGVRSEELSPMSVEPSAGLDPSPEPCNPGEPVIITSARSSVTPRTHHCSPFAAASRLGSASVSRSRRMSSSLRVIPSDSHLLSSTTSRELKRATKRVPGGLMRECTFKPVINSVYEQSPVSFSSTAIVQKRKPASTAPPTFQPNTQQFHQARDSLARWTRQPIKDNSDYRGEAAANPLATGVETAVRRMIAARQQRQRSQSPRPSLQKGSHHSAPAPQSTVRAPVAHPRKPLLYVDVDLPQGQRDRLALYTGDDVQDVAQRFSILHGLSESLCQRLETALTAELCALSVGKAA	not soluble
TGEESLQQVAMRASRLGLPKEHLKMLSETNVDKICQIAEKEQPRIMVIDSIQVMHVSDVQSSPGSVAQVRESATALTRYAKQNNVAVFIVGHVTKDGTLAGPKVLEHIIDCSVLLDGGTDSRFRTLRSHKNRFGAVNELGVFAMTGQGLKEVSNPSAIFLSRGEEETSGSSVMVVWEGTRPLLVEIQALVDYSQLANPRRVAVGLEQNRLSLLLAVLHKHGGLQMADQDVFVNVVGGV	not soluble
MLINKTKRAEQNLNNLPFLALQAEQIEFLGSSAEFKTQIIELIRNAKKRIYVTALYWQKDEAGQEILDEIYRVKQENPHLDVKVLIDWHRAQRNLLGAEKSATNADWYCEQRQTYQLPDDPNMFFGVPINTREVFGVLHVKGFVFDDTVLYSGASINNVYLHQFEKYRYDRYQKITHAELADSMVNFINDYLLDFSAVYPLDVTNRPRTKEIRGNIRAYRKDLAQNGEYSLKSAVKLPNVLSVSPLFGLGASGNELNQVIEDLFLQVQKKLVICTPYFNFPRTLQHKIATLLENGKRVEIIVGDKVANDFYIPPEQPFKMAGALPYLYESNLRRFCEKFETQIESGQLVVRLWRDGDNTYHLKGVWVDDRYILLTGNNLNPRAWRLDAENGLLIYDPQQQLLAQVEKEQNQIRQHTKVLKHYTELEELNQYPEPVQKLLKKFARIKADKLVKMILAAALEHHHHHH	soluble
MSLRNDPTGVTHAIRLDNDIFKLNVYIKNIDTSKSNLRYTEGYLQSLTNILTRAKEIAIQGASGTYESDDKKMISKEVNALLEDVVAIANAKGPDGYSIFSGTKIDSEAFKVTRENKISKTSKDGAGPQIIKVEYNGNQAEKKTEVYNDIHMSNNYPGNVIFFLQNQNIISSINTNGFAVKENTKIYIDNIEIGLTAGDTALDIVAKINESSAPVEASIDPVLNSLSIKTTTPHQIWITEEKESNVLQTLGILTKNNDTKLPPYNLSSSTEVRSRSIFDALIELRDTLYNNKEELVGSRSLAEIDESLKRLLISVADLGAKENRLDRSYERISKEAADMKEDMIQYTDLDVTKAITNLNMASLAYQVSIGISAKIMQTTLLDFIKEGHHHHHH	soluble
